Kd data for 2 molecules are collected here from publication PMC7082075.

Assay [1] concerns the target SNX3-retromer complex (retromer VPS35/VPS26/VPS29 with SNX3), Q96QK1. The assay is described as follows: ITC; Fig 1E: approximately 2–3 mM of peptides titrated into the SNX3-retromer complex (10 μM Retromer + 100 μM SNX3); 100 mM HEPES pH 7.5, 300 mM NaCl, 2 mM βME, 25°C; one set of sites model; single values of triplicates.
The target of assay [2] is SNX3-retromer complex (Retromer + SNX3), Q96QK1. The assay is described as follows: ITC; approximately 2–3 mM peptide titrated into SNX5^PX (300 μM) or the SNX3-retromer complex (10 μM Retromer + 100 μM SNX3); 100 mM HEPES pH 7.5, 300 mM NaCl, 2 mM βME, 25°C; one set of sites model (Fig 1D, 1E, 2B).

Where “and” joins values, the source holds several entries; their conditions need not be identical. Equal entries are not always repeated.

As to AQPELYLLNTMDADSLVSR (modifications not checked) [DMT1-II peptide (divalent metal transporter 1)], in assay [1], the Kd is 100 µM and 113 µM and 117 µM.
For the molecule AQPELYLLNTMDADSLVSR (modifications not checked) [DMT1-II peptide], in assay [2], the Kd worked out at 110 µM.
